PMC11676163, “Comparison of Two Chelator Scaffolds as Basis for Cholecystokinin-2 Receptor Targeting Bimodal Imaging Probes” (Pharmaceuticals, 2024)
“And” between values parts separate entries of the source, which are not always exact repeats. Equal values may be shown once.

Columns and labels:
[1] = tested on: A431-mock cells; assay: Cell uptake studies on A431-mock cells; assay type: cell-based, human; conditions: 0.5 nM, 1 h, 37 °C
Source text: (§1) The human squamous carcinoma cell line A431 transfected with human CCK2R (A431-CCK2R) and with the empty vector alone (A431-mock) were originally provided by Dr. Luigi Aloj (Nuclear Medicine Unit, Istituto Nazionale per lo Studio e la Cura dei Tumori “Fondazione Giovanni Pascale”-IRCCS, Naples, Italy). All cell culture media and reagents were purchased from Gibco, Invitrogen (Thermo Fisher Scientific, Vienna, Austria), or Sigma-Aldrich (Darmstadt, Germany) Corporation. Dulbecco's Modified Eagle's medium (DMEM) supplemented with 10% (v/v) fetal bovine serum, FBS (10270, Invitrogen, Thermo Fisher Scientific, Waltham, MA, USA), and 1% (v/v) penicillin-streptomycin-glutamine, PSG (10378, Gibco, Thermo Fisher Scientific, Waltham, MA, USA), was used for cell culture. The cells were grown at 37 °C in a humidified atmosphere with 5% carbon dioxide and were passaged 3 times per week using a 2.5% trypsin-EDTA solution. The cell internalization of the radiolabelled compounds was measured on A431-CCK2R and A431-mock cells. A total of 1.0 × 10^6 cells per well were seeded in 6-well culture plates (Greiner Cellstar, Sigma-Aldrich […] GmbH, Vienna, Austria) and grown for 48 h. On the day of the experiment, each well was washed twice with internalization medium (culturing medium supplemented with 1% (v/v) FBS) and then incubated with 0.5 nM of a radioactive compound for 1 h at 37 °C. After the incubation, the medium was removed and the cells rinsed with 2 × 1 mL of PBS/0.5% (w/v) bovine serum albumin (BSA). Thereafter, they were washed twice with 1 mL of 50 mM glycine buffer (pH 2.8) with 0.1 M NaCl to remove the membrane-bound radiocompound. Finally, the cells were lysed with 2 × 1 mL of 1 M NaOH to determine the internalized radioligand. All fractions were measured in the γ-counter and the percentage of internalized and membrane-bound radiocompounds in relation to the total radioactivity added to the cells was reported.

[2] = in vivo; conditions: athymic BALB/c nude, mouse, total radioactivity
Experimental: (§2) For the induction of tumour xenografts, 2 × 10^6 of A431-CCK2R or A431-mock cells in 200 μL appropriate medium and Matrigel (1:1) were subcutaneously injected in the right and left flank of each mouse (athymic BALB/c nude), respectively. The tumours were allowed to grow until they had reached a volume of 0.3 to 0.6 cm^3. To evaluate ex vivo biodistribution on tumour models, 3 mouse xenografts were injected with 0.05 nmol of radiotracer (1 MBq) and then sacrificed after 2 h. For the comparative imaging study (PET/CT and in vivo fluorescence imaging), 2 xenograft-bearing mice were injected with 0.3 nmol (6 MBq) of radiotracer. Static PET/CT images of the anesthetized animals in prone position were acquired with a Mediso NanoScan PET/CT small-animal imaging system (Mediso Medical Imaging Systems, Budapest, Hungary) at 1, 2, and 3 h p.i. Image reconstruction was performed via Mediso Tera-Tomo 3D PET iterative reconstruction (Mediso Medical Imaging Systems, Budapest, Hungary). The images were visualized, processed, and quantified in Mediso InterView FUSION (Mediso Medical Imaging Systems, Budapest, Hungary). Quantitative analyses were performed on images of 3 mouse xenografts per compound. The images were normalized to injected activity and animal weight. The results were expressed as percentages of injected dose per gram tissue (% ID/g).

[3] = tested on: A431-CCK2R / A431-mock xenografts; assay: in vivo; conditions: mouse
Experimental: as §2

[4] = in vivo; conditions: BALB/c, mouse, total radioactivity
Experimental: For the ex vivo biodistribution study on healthy BALB/c mice, 3 animals per group were injected with 0.14 nmol of radiotracer (1.5 MBq) and then sacrificed after 1, 2, and 4 h. The organs of interest were extracted, weighed, and measured in the γ-counter. Results were expressed as percentages of injected dose per gram tissue (% ID/g).

[5] = Distribution coefficient (LogD pH7.4), octan-1-ol/PBS; assay type: physicochemical; conditions: octan-1-ol/PBS pH 7.4, n = 6
Experimental: For lipophilicity determination, [^68Ga]Ga-CyTMG and [^68Ga]Ga-CyFMG labelling solutions were diluted with phosphate-buffered saline (PBS, pH7.4) to a concentration of 0.1 µM. A total of 300 µL of this solution was added to an Eppendorf tube containing 300 µL of octan-1-ol. The mixture was shaken at 1400 rpm and at RT for 15 min and centrifuged at 4500× g rpm for 2 min for phase separation. Afterwards, 100 µL of the organic phase and of the aqueous phase were taken out and the activities of the aliquots were quantified in a γ-counter (n = 6). The LogD values were calculated with the following formula:(1) LogDpH7.4=log10  CPMoctanol phase/CPM PBS phase

[6] = physchem; assay type: physicochemical; conditions: buffer or solvent, pH 7.4
Experimental: For stability and protein binding studies, the labelling solutions were diluted with PBS or human serum to a concentration of 0.5 µM and incubated at 37 °C for 1 h, 2 h, and 4 h (n = 3). In the case of serum stability for each timepoint, 100 uL of the incubated solution was diluted 1:1 with ACN to make the proteins precipitate and the solution was centrifuged for 2 min at 14,000× g rpm. A total of 100 uL of the supernatant was then diluted 1:1 with water and analyzed by radio-HPLC. For stability in PBS, 100 uL of the incubated solution was diluted 1:1 with water and analyzed by radio-HPLC for every timepoint.

[7] = tested on: A431-CCK2R cells; assay: Cell uptake studies on A431-CCK2R cells; assay type: cell-based, human; conditions: 0.5 nM, 1 h, 37 °C
Source text: as §1

[8] = tested on: A431-CCK2R / A431-mock xenografts; assay type: in vivo, mouse; conditions: for Time after injection from which cancerous tissue could be well delineated by fluorescence imaging: A431-CCK2R xenografts, 0.3 nmol; for Persistence of fluorescence signal in the kidneys: mouse, in vivo
Experimental: as §2
Near-infrared in vivo fluorescence imaging was conducted with an in vivo MS FX PRO small-animal imaging system (Bruker Biospin Corporation, Woodbridge, CT, USA) and image analysis was performed with Bruker MI SE software v. 7.1.1.20220 (Bruker Biospin Corporation, Woodbridge, CT, USA). The mice were positioned in the system in supine position and scanned at various time intervals up to 72 h p.i. by using an appropriate filter set (excitation = 650 nm and emission = 700 nm) and identical illumination settings (acquisition time = 30 s, f-stop = 2.8, field of view = 100 mm, and binning = 4 × 4). The fluorescence emission was reported as photons/s/mm^2.

[9] = target: T1, CCK2 receptor (Homo sapiens, UniProt P32239); assay: Receptor-binding affinity, competition against [^177Lu]Lu-DOTA-MGS5 on A431-CCK2R cells; conditions: metal-free compounds, vs [^177Lu]Lu-DOTA-MGS5, 1 h RT
T1 construct: expressed in transfected cells; host or cells: A431 human squamous carcinoma cells (A431-CCK2R), provided by Dr. Luigi Aloj
T1 sequence (P32239 1-447): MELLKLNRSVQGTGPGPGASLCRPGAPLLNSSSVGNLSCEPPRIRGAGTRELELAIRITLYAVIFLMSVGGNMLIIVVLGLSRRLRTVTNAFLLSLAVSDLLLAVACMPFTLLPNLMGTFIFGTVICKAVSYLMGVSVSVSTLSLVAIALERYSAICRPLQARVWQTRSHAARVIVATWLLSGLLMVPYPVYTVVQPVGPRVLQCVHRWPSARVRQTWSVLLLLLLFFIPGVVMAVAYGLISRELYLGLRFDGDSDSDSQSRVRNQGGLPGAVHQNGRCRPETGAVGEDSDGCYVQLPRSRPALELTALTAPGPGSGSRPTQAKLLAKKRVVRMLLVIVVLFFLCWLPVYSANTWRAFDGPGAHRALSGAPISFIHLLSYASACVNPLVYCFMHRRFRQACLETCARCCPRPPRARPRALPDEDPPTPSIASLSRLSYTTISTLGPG
Experimental: A total of 5 µg of DOTA-MGS5 were radiolabelled with 20 µL of [^177Lu]LuCl3 solution (300–400 MBq; 90–95 GBq/µmol) and 30 µL of 0.4 M sodium acetate/0.24 M gentisic acid solution with pH 5. The labelling mixture was heated at 90 °C for 20 min. At the end, the solution was diluted to a concentration of 200 nM and stored in a freezer for further use. Binding assays were carried out in 96-well filter plates (Multi-ScreenHTS-FB, Merck Group, Darmstadt, Germany) pretreated with 10 mM TRIS/139 mM NaCl buffer at pH 7.4 (TRIS-buffer) (2 × 250 μL) before 400,000 A431-CCK2R cells per well were added in 20 mM HEPES buffer at pH 7.4 containing 10 mM MgCl2, 14 μM bacitracin, and 0.5% (w/v) bovine serum albumin (BSA) (binding assay buffer). Competition assays were performed two times in triplicate using increasing concentrations of competitors (0.001–1,000 nM) and a constant amount of radioligands (~30,000 cpm, 0.3 nM). After 1 h of incubation at room temperature (RT), the medium was removed by vacuum filtration and the filters were rapidly rinsed with ice-cold binding assay buffer (2 × 200 μL), removed, and counted in the γ-counter. Half-maximal inhibitory concentration (IC50) values were calculated following non-linear regression with Origin software (MicroCal Origin 6.1, Northampton, MA, USA).

[10] = Accumulation of radioactivity in A431-CCK2R xenografts
[11] = Accumulation of radioactivity in A431-mock tumours

Structure (SMILES) | Internalized fraction, % of total activity [1] [%] | Membrane bound, % of total activity [1] [%] | tissue uptake at 2 h ([2]; 0.05 nmol, Kidney uptake) [%ID/g] | tissue uptake at 2 h [2, 10] [%ID/g] | tissue uptake at 2 h [2, 11] [%ID/g] | Ratio of CCK2R-positive tumours and A431-mock xenografts [3] | tissue uptake at 1 h [4] [%ID/g] | tissue uptake at 2 h [4] [%ID/g] | tissue uptake at 4 h [4] [%ID/g] | LogDpH7.4 ± SD [5] | remaining at 1 h, 0.5 µM [6] [%] | remaining at 2 h, 0.5 µM [6] [%] | remaining at 4 h, 0.5 µM [6] [%] | Internalized fraction, % of total activity [7] | Membrane bound, % of total activity [7] [%] | Time after injection from which cancerous tissue could be well delineated by fluorescence imaging [8] [h] | Persistence of fluorescence signal in the kidneys [8] | IC50 [9] [nM]
CCCC[C@@H](C(=O)N[C@@H](CC(=O)O)C(=O)N[C@@H](Cc1cccc2ccccc12)C(N)=O)N(C)C(=O)[C@H](Cc1c[nH]c2ccccc12)NC(=O)CCOCCOCCOCCOCCn1cc(CCC(=O)N[C@H]2CCCN(O)C(=O)/C=C(/C)CCOC(=O)[C@@H](NC(=O)CCc3cn(CCOCCOCCOCCOCCC(=O)N[C@@H](Cc4c[nH]c5ccccc45)C(=O)N(C)[C@@H](CCCC)C(=O)N[C@@H](CC(=O)O)C(=O)N[C@@H](Cc4cccc5ccccc45)C(N)=O)nn3)CCCN(O)C(=O)/C=C(/C)CCOC(=O)[C@@H](NC(=O)CCc3cn(CCCNC(=O)CCCCC[N+]4=C(/C=C/C=C/C=C5/N(C)c6ccc7c(S(=O)(=O)O)cc(S(=O)(=O)[O-])cc7c6C5(C)C)C(C)(C)c5c4ccc4c(S(=O)(=O)O)cc(S(=O)(=O)O)cc54)nn3)CCCN(O)C(=O)/C=C(/C)CCOC2=O)nn1 [[^68Ga]Ga-CyFMG, metal not drawn] | 1.3 | 0.7 | 50.7 ± 8.42 | 4.02 ± 1.64 | 1.02 ± 0.13 | 3.94 | 45.9 ± 3.03 | 59.3 ± 5.04 | 74.3 ± 11.7 | −1.53 ± 0.10 | 99.1 ± 1.07 | 98.57 ± 0.47 | 99.3 ± 0.71 | 24.48 ± 1.33% and 24.5% | 0.9 | ≥ 3 | visibly declined from 24 h to disappear completely at 72 h after injection | –
CCCC[C@@H](C(=O)N[C@@H](CC(=O)O)C(=O)N[C@@H](Cc1cccc2ccccc12)C(N)=O)N(C)C(=O)[C@H](Cc1c[nH]c2ccccc12)NC(=O)CCOCCOCCOCCOCCn1cc(CNC(=O)CCP(=O)(O)CN2CCN(CP(=O)(O)CCC(=O)NCc3cn(CCCNC(=O)CCCCC[N+]4=C(C=CC=CC=C5N(C)c6ccc7c(S(=O)(=O)O)cc(S(=O)(=O)O)cc7c6C5(C)C)C(C)(C)c5c4ccc4c(S(=O)(=O)O)cc(S(=O)(=O)O)cc54)nn3)CCN(CP(=O)(O)CCC(=O)NCc3cn(CCOCCOCCOCCOCCC(=O)N[C@@H](Cc4c[nH]c5ccccc45)C(=O)N(C)[C@@H](CCCC)C(=O)N[C@@H](CC(=O)O)C(=O)N[C@@H](Cc4cccc5ccccc45)C(N)=O)nn3)CC2)nn1 (single isomer, unassigned) [CyTMG] | – | – | – | – | – | – | – | – | – | – | – | – | – | – | – | – | – | 0.24 ± 0.16
CCCC[C@@H](C(=O)N[C@@H](CC(=O)O)C(=O)N[C@@H](Cc1cccc2ccccc12)C(N)=O)N(C)C(=O)[C@H](Cc1c[nH]c2ccccc12)NC(=O)CCOCCOCCOCCOCCn1cc(CNC(=O)CCP(=O)(O)CN2CCN(CP(=O)(O)CCC(=O)NCc3cn(CCCNC(=O)CCCCC[N+]4=C(C=CC=CC=C5N(C)c6ccc7c(S(=O)(=O)O)cc(S(=O)(=O)O)cc7c6C5(C)C)C(C)(C)c5c4ccc4c(S(=O)(=O)O)cc(S(=O)(=O)O)cc54)nn3)CCN(CP(=O)(O)CCC(=O)NCc3cn(CCOCCOCCOCCOCCC(=O)N[C@@H](Cc4c[nH]c5ccccc45)C(=O)N(C)[C@@H](CCCC)C(=O)N[C@@H](CC(=O)O)C(=O)N[C@@H](Cc4cccc5ccccc45)C(N)=O)nn3)CC2)nn1 (single isomer, unassigned) [[^68Ga]Ga-CyTMG, metal not drawn] | 0.2 | 0.5 | 119 ± 9.12 | 6.47 ± 1.47 | 2.46 ± 0.4 | 2.63 | 75.8 ± 3.88 | 124 ± 6.46 | 173 ± 13 | −1.78 ± 0.16 | 97.98 ± 0.2 | 97.56 ± 0.09 | 96.7 ± 1.15 | 10.59 ± 0.40% and 10.6% | 0.8 | ≥ 1 | up to 72 h | –
